In patent US20030044858A1 one finds % CHO 3D10 (+) and % IM9 (+) data, which are given here for 14 substances.

Test [1] addresses FcεRI alpha chain on CHO 3D10 cells (UniProt P12319). Put plainly: FACS, 1.65 ug/ml, CHO 3D10 cells. (In general: In flow cytometry, cells or beads pass a laser one at a time.)
Test [2] concerns the target T1, FcεRII (CD23) on IM9 cells (human) (UniProt P06734).
T1 sequence (looked up): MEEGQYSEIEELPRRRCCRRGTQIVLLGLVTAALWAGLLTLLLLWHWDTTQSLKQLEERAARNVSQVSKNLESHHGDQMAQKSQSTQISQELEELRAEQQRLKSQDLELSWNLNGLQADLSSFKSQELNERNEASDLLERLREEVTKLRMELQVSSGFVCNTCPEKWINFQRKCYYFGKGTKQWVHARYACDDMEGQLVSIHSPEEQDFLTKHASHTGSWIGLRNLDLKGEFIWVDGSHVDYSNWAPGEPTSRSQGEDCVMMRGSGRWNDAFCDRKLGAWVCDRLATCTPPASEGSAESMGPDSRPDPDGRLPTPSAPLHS
The test can be described thus: FACS, 1.65 ug/ml, IM9 cells.

The target in test [3] is T1, FcεRII (CD23) on IM9 cells (human). The test can be described thus: FACS, 10 ug/ml, IM9 cells.
Test [4] has the same target. Put plainly: FACS, 5 ug/ml, IM9 cells.
For test [5] the target is unchanged. The test can be described thus: FACS, 0.5 ug/ml, IM9 cells.
Test [6] has as its target FcεRI alpha chain on CHO 3D10 cells (UniProt P12319). The test can be described thus: FACS, 0.1 ug/ml, CHO 3D10 cells.
Test [7] concerns the target T1, FcεRII (CD23) on IM9 cells (human). The test can be described thus: FACS, 0.1 ug/ml, IM9 cells.
Test [8] addresses FcεRI alpha chain on CHO 3D10 cells (UniProt P12319). The test can be described thus: FACS, 10 ug/ml, CHO 3D10 cells.
Test [9] has the same target. The test can be described thus: FACS, 0.5 ug/ml, CHO 3D10 cells.
For test [10] the target is unchanged. Put plainly: FACS, 5 ug/ml, CHO 3D10 cells.

FcεRI alpha chain on CHO 3D10 cells, sequence (P12319 26-257 limits assumed): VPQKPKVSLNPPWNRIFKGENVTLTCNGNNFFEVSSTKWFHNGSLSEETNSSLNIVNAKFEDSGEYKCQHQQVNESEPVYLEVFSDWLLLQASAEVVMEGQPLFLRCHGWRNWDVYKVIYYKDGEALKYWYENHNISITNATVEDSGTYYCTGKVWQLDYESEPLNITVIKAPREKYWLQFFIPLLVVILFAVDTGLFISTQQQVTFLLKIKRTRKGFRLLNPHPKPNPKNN
human IgE (U266 IgE), sequence (P01854 whole entry): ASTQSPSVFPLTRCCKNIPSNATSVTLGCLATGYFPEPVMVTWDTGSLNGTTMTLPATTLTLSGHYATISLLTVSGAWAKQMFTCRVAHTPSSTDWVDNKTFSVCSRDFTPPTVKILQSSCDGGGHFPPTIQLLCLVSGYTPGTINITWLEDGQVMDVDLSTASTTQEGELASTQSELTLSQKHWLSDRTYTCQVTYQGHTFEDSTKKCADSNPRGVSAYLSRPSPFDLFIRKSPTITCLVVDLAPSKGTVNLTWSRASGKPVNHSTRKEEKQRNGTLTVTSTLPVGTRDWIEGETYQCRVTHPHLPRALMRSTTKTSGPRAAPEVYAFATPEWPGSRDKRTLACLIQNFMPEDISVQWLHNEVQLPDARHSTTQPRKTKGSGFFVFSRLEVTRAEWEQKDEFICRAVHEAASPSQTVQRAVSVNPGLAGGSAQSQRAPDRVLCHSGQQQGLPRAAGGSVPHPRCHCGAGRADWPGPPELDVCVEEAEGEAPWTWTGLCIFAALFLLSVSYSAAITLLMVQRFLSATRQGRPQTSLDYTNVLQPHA
human IgE mutant 9 (N403A, T405A), sequence (P01854 other isoform, or with tags, fused parts or gaps, stated change not applied): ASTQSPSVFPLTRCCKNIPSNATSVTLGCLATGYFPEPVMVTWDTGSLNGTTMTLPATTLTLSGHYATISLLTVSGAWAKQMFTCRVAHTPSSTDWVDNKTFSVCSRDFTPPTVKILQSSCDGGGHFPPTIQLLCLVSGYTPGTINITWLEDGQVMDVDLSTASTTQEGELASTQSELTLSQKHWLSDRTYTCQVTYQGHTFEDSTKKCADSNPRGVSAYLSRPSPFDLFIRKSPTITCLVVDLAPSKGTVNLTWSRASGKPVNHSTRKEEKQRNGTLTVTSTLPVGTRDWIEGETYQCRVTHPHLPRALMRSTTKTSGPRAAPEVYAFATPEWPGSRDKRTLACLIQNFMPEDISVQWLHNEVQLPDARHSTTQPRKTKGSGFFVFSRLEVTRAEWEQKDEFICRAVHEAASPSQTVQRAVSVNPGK
human IgE mutant 3 (loop CD exchanged), sequence (P01854 other isoform, or with tags, fused parts or gaps, change not shown): as the sequence (P01854 other isoform, or with tags, fused parts or gaps, stated change not applied) above
human IgE mutant 2 (loop BC exchanged), sequence (P01854 other isoform, or with tags, fused parts or gaps, change not shown): as the sequence (P01854 other isoform, or with tags, fused parts or gaps, stated change not applied) above
human IgE mutant 13 (Fcε2: 329-331 and 334-336 to Ala), sequence (P01854 other isoform, or with tags, fused parts or gaps, change not shown): as the sequence (P01854 other isoform, or with tags, fused parts or gaps, stated change not applied) above
human IgE mutant 8 (T387A, T389A), sequence (P01854 other isoform, or with tags, fused parts or gaps, stated change not applied): as above
human IgE mutant 7 (383-385 RKS to AAA), sequence (P01854 other isoform, or with tags, fused parts or gaps, change not shown): as the sequence (P01854 other isoform, or with tags, fused parts or gaps, stated change not applied) above
human IgE mutant 5 (loop FG exchanged), sequence (P01854 other isoform, or with tags, fused parts or gaps, change not shown): as the sequence (P01854 other isoform, or with tags, fused parts or gaps, stated change not applied) above
human IgE mutant 4 (loop EF exchanged), sequence (P01854 other isoform, or with tags, fused parts or gaps, change not shown): as the sequence (P01854 other isoform, or with tags, fused parts or gaps, stated change not applied) above
human IgE mutant 1 (loop AB exchanged for human IgG1 loop), sequence (P01854 other isoform, or with tags, fused parts or gaps, change not shown): as the sequence (P01854 other isoform, or with tags, fused parts or gaps, stated change not applied) above
human IgE mutant 10 (T438A, T440A), sequence (P01854 other isoform, or with tags, fused parts or gaps, stated change not applied): as above
human IgE mutant 12 (S471A, T473A), sequence (P01854 other isoform, or with tags, fused parts or gaps, stated change not applied): as above
human IgE mutant 6 (β-strand D exchanged), sequence (P01854 other isoform, or with tags, fused parts or gaps, change not shown): as the sequence (P01854 other isoform, or with tags, fused parts or gaps, stated change not applied) above
human IgE mutant 11 (Q455A, R457A, T459A), sequence (P01854 other isoform, or with tags, fused parts or gaps, stated change not applied): as above

“human IgE mutant 12 (S471A, T473A) (from UniProt P01854 1-428) (antibody)” had a % CHO 3D10 (+) in test [1] of 84.7%. Further, in test [2], the % IM9 (+) was 90.3%.

“human IgE mutant 2 (loop BC exchanged) (from UniProt P01854 1-428) (antibody)” had a % CHO 3D10 (+) in test [1] of 34.3%. In addition, the % IM9 (+) in test [2] was determined as 48.9%.

“human IgE mutant 4 (loop EF exchanged) (from UniProt P01854 1-428) (antibody)”: the % CHO 3D10 (+) in test [1] is 4.9%. Moreover, the % IM9 (+) in [2] was 9.2%.

Regarding “human IgE mutant 1 (loop AB exchanged for human IgG1 loop) (from UniProt P01854 1-428) (antibody)”, in test [1], the % CHO 3D10 (+) stood at 1.7%. Further, in test [2], the % IM9 (+) was determined as 4.3%.

In test [1], “human IgE mutant 7 (383-385 RKS to AAA) (from UniProt P01854 1-428) (antibody)” gave a % CHO 3D10 (+) of 76.4%. In addition, the % IM9 (+) in test [2] was 4.6%.

Substance “human IgE mutant 9 (N403A, T405A) (from UniProt P01854 1-428) (antibody)” yielded a % CHO 3D10 (+) in [1] of 84.2%. Further, in [2], the % IM9 (+) is 94.3%.

In turn, “human IgE mutant 13 (Fcε2: 329-331 and 334-336 to Ala) (from UniProt P01854 1-428) (antibody)” had a % CHO 3D10 (+) in test [1] of 85.7%. Further, the % IM9 (+) in test [2] worked out at 96.1%.

In turn, “human IgE mutant 6 (β-strand D exchanged) (from UniProt P01854 1-428) (antibody)” registered a % CHO 3D10 (+) in [1] of 1.4%. This substance also gave a % IM9 (+) in test [2] of 71.6%.

In the case of “human IgE mutant 5 (loop FG exchanged) (from UniProt P01854 1-428) (antibody)”, in test [1], the % CHO 3D10 (+) was found to be 60.5%. For the same substance, in test [2], the % IM9 (+) turned out to be 73.9%.

Regarding “human IgE (U266 IgE) (from UniProt P01854 1-546) (antibody)”, the % IM9 (+) worked out at 92.5% in test [3], 82.6% in test [4], 4.6% in test [5] and 1.7% in test [7]. Also, the % CHO 3D10 (+) in [6] amounted to 15.8%; in test [8], 90.3%; in test [9], 59.6%; in [10] it was 89.9%.

Consider “human IgE mutant 11 (Q455A, R457A, T459A) (from UniProt P01854 1-428) (antibody)”, for which the % CHO 3D10 (+) in test [1] was determined as 70.8%. In test [2], this substance returned a % IM9 (+) of 61.5%.

The substance “human IgE mutant 10 (T438A, T440A) (from UniProt P01854 1-428) (antibody)” yielded a % CHO 3D10 (+) in [1] of 67.5%. Further, in test [2], the % IM9 (+) was 84.8%.

Take “human IgE mutant 3 (loop CD exchanged) (from UniProt P01854 1-428) (antibody)”: in [1], the % CHO 3D10 (+) was 32.3%. Besides, the % IM9 (+) in [2] came to 1.2%.

“human IgE mutant 8 (T387A, T389A) (from UniProt P01854 1-428) (antibody)” gave a % CHO 3D10 (+) in test [1] of 70.3%. Further, the % IM9 (+) in test [2] was determined as 16.3%.
